Source: US7122624B2, “Parathyroid hormone receptor ligands” (The United States of America as represented by the …, priority 1999, dated 2006)

Tests used:
[1] = target: T1, human PTH2 receptor (Homo sapiens, UniProt P49190); assay: cAMP accumulation in COS-7 cells transiently expressing the human PTH2 receptor; assay type: cell-based; details: COS-7
T1 construct: expressed in transfected cells; host or cells: COS-7 (transient)
Source text: (§1) Cell culture supplies were obtained from Life Technologies (Frederick, Md.) except for fetal bovine serum which was from Sigma (St. Louis, Mo.).
(§2) The constructs containing the cDNA sequences of the human PTH2 receptor and β-galactosidase have been previously described.
(§3) All peptides were purchased from either Bachem (Torrance, Calif.) or Peninsula Laboratories (Belmont, Calif.). The letters ‘b,’ ‘r’ and ‘h’ designate the peptide sequence as bovine, rat and human, respectively. […] [α-^32P]dCTP was purchased from ICN Biomedicals (Costa Mesa, Calif.). Bovine hypothalamic extract was prepared by acid extraction, gel-filtration and reverse-phase HPLC as previously described. […] Antagonist inhibitory potency was examined by measuring the concentration-dependence of rPTH(1–34)-stimulated cAMP accumulation in the presence and absence of antagonist.
(§4) Statistical comparison of two sample means was evaluated using the two-tailed Student's t-test. […] Antagonist inhibitory potency was quantified using the pA2, value, the negative logarithm of the concentration of antagonist that produces a two-fold decrease of agonist EC50. This was calculated using the following equation: pA2=((EC50/EC50′)−1)−log [antagonist]

[2] = target: T2, rat PTH2 receptor (Rattus norvegicus, UniProt P70555); assay: cAMP accumulation in COS-7 cells transiently expressing the rat PTH2 receptor; assay type: cell-based
T2 construct: expressed in transfected cells; host or cells: COS-7 (transient)
T2 sequence (P70555 25-546): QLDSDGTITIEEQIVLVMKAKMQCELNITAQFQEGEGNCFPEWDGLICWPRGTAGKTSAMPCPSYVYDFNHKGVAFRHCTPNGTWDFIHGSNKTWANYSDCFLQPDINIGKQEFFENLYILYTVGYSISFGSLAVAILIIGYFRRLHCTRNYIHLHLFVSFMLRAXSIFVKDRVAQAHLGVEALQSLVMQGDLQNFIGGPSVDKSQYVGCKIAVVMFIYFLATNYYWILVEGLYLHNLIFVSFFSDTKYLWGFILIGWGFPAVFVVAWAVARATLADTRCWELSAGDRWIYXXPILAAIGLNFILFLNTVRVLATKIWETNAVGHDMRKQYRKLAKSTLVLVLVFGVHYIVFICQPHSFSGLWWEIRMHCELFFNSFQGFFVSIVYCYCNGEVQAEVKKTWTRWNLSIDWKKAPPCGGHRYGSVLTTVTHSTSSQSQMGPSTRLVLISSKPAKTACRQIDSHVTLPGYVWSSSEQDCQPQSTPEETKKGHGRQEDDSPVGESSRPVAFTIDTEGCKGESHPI
Method: To express rat PTH2 receptor in cell culture, a rat hypothalamus cDNA library was prepared in the vector CDM7 amp as described. […] A clone was isolated from a single positive pool by colony hybridization using the same ^32P labeled probe.
as §1, §2, §3, §4

T1 sequence (P49190 25-550): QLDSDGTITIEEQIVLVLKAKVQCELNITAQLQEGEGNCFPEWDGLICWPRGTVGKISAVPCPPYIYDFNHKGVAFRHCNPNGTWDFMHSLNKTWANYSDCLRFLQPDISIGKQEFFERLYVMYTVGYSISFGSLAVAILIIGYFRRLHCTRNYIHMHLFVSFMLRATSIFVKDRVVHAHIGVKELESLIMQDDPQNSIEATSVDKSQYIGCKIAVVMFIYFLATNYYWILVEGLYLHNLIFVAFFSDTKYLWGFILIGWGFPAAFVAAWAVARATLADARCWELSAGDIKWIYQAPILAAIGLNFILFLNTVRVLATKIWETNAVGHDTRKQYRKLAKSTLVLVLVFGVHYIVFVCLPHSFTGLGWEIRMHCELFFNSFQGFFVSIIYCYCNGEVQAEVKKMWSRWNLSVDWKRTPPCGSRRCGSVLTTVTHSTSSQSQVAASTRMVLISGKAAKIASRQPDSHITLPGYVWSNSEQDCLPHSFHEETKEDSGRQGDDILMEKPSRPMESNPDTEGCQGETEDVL

B1: rPTH(1-84): rat full-length parathyroid hormone (1–84), purchased (peptide)
peptide: AVSEIQLMHNLGKHLASVERMQWLRKKLQDVHNFVSLGVQMAAREGSYQRPTKKEENVLVDGNSKSLGEGDKADVDVLVKAKSQ
EC50 ([1]; activation of adenylyl cyclase, figures in brackets): 0.58 nM
−logEC50 ([1]; activation of adenylyl cyclase, mean ± s.e.m. of three or four experiments): 9.24 ± 0.05
Emax, % of response to 1 μM hPTH(1-34) ([1]; intrinsic activity): 98 ± 4%
EC50 ([2]; activation of adenylyl cyclase, COS-7, figures in brackets): 19 nM
−logEC50 ([2]; activation of adenylyl cyclase, COS-7, mean ± s.e.m. of three or four experiments): 7.72 ± 0.12
Emax, % of response of rPTH2r to 3 μM rPTH(1-34) ([2]; intrinsic activity, COS-7): 97 ± 5%
Emax, % of response of hPTH2r to 1 μM hPTH(1-34) ([2]; rat receptor response relative to human PTH2 receptor response measured in parallel): 28 ± 4%
